Patent US20110177003A1 (CENTRE NATIONAL DE LA RECHERCHE SCIENTIFIQUE, published 2011)

Experiments:
IFP1.2 = experiment: multiple angle light scattering at 785 nm; self-association (homodimer)
[1] = biological target: the molecule itself; experiment: size exclusion chromatography; self-association (homodimer)

apparent molecular weight (IFP1.2) [kDa]	Molecule	binding result [1]
80	IFP1.2	–
–	IFP1.0 (DrCBD, 321 amino acids, with the D207H mutation) (other, biliverdin chromophore covalently incorporated (residue not stated), Engineered bacteriophytochrome fragment, reported as a homodimer; also called DrCBD/D207H; drCBD/D207H) MSRDPLPFFPPLYLGGPEITTENCEREPIHIPGSIQPHGALLTADGHSGEVLQMSLNAATFLGQEPTVLRGQTLAALLPEQWPALQAALPPGCPDALQYRATLDWPAAGHLSLTVHRVGELLILEFEPTEAWDSTGPHALRNAMFALESAPNLRALAEVATQTVRELTGFDRVMLYKFAPDATGEVIAEARREGLHAFLGHRFPASHIPAQARALYTRHLLRLTADTRAAAVPLDPVLNPQTNAPTPLGGAVLRATSPMHMQYLRNMGVGSSLSVSVVVGGQLWGLIACHHQTPYVLPPDLRTTLEYLGRLLSLQVQVKEA	binds
